What was measured:
[1] = biological target: T1, β2-adrenergic receptor fused to a TEV cleavage site and tTA (human, UniProt P07550 1-413); experiment: Tango assay (TEV protease proximity reporter); HTL cells co-transfected with receptor-TEV cleavage site-tTA and GRK-TEV protease fusions; luciferase reporter; vehicle or ligand overnight (ATR 10 μM for rhodopsin; paroxetine; DHE 0.1 μM, GR 127935 1 μM; SX 1 μM, ICI 118 551 1 μM); DNA amounts adjusted for similar expression; details: partners not purified
T1 construct: human β2-adrenergic receptor; also called β2AR; source: HTL cells, transfected (pcDNA3), in cells; not shown: TEV cleavage site (ENLYFQS), C-terminal, kept

[2] = biological target: T2, serotonin receptor 5-HT1B fused to a TEV cleavage site and tTA (human, UniProt P28222 1-390); experiment: as above; details: partners not purified
T2 construct: human serotonin receptor 5-HT1B; also called HTR1b; source: HTL cells, transfected (pcDNA3), in cells; not shown: TEV cleavage site (ENLYFQS), C-terminal, kept

[3] = biological target: T3, Arrestin-biotin-MBP (human wild-type visual arrestin), purified (human, UniProt P10523 1-405, biotin on the tag); experiment: AlphaScreen or HTRF; biotinylated WT arrestin and His8-tagged 4M Rho, with 80 nM purified GRK1 and 40 μM ATP added (indirect kinase assay); details: both partners purified
T3 construct: human visual arrestin (arrestin1); also called WT arrestin; arrestin1; source: Sf9 insect cells, purified on amylose beads; not shown: biotin tag, C-terminal, kept

| fold induction by the agonist salmeterol xinafoate over the vehicle control [1] [fold] | fold induction by the agonist dihydroergotamine over the vehicle control [2] [fold] | binding result [3] | Binder |
| --- | --- | --- | --- |
| 2 | 2.5 |  | bovine GRK2 fused to the N-terminus of TEV protease (enzyme, UniProt P21146 1-689, looked up, bovine GRK2; source: HTL cells, transfected (pcDNA3), in cells; not shown: HA or FLAG, C-terminal, kept; TEV protease, C-terminal, kept) MADLEAVLADVSYLMAMEKSKATPAARASKKILLPEPSIRSVMQKYLEDRGEVTFEKIFSQKLGYLLFRDFCLKHLEEAKPLVEFYEEIKKYEKLETEEERLVCSREIFDTYIMKELLACSHPFSKSAIEHVQGHLVKKQVPPDLFQPYIEEICQNLRGDVFQKFIESDKFTRFCQWKNVELNIHLTMNDFSVHRIIGRGGFGEVYGCRKADTGKMYAMKCLDKKRIKMKQGETLALNERIMLSLVSTGDCPFIVCMSYAFHTPDKLSFILDLMNGGDLHYHLSQHGVFSEADMRFYAAEIILGLEHMHNRFVVYRDLKPANILLDEHGHVRISDLGLACDFSKKKPHASVGTHGYMAPEVLQKGVAYDSSADWFSLGCMLFKLLRGHSPFRQHKTKDKHEIDRMTLTMAVELPDSFSPELRSLLEGLLQRDVNRRLGCLGRGAQEVKESPFFRSLDWQMVFLQKYPPPLIPPRGEVNAADAFDIGSFDEEDTKGIKLLDSDQELYRNFPLTISERWQQEVAETVFDTINAETDRLEARKKTKNKQLGHEEDYALGKDCIMHGYMSKMGNPFLTQWQRRYFYLFPNRLEWRGEGEAPQSLLTMEEIQSVEETQIKERKCLLLKIRGGKQFVLQCDSDPELVQWKKELRDAYREAQQLVQRVPKMKNKPRSPVVELSKVPLIQRGSANGL |
|  |  | binds | H8-MBP-Rho (4M) phosphorylated by purified GRK1 with ATP (receptor, human, UniProt P08100 1-348, looked up, phosphorylated by GRK1; sites not stated, human rhodopsin; also called GRK-phosphorylated Rho; source: HEK293S cells, purified on amylose beads; phosphorylated in the assay mixture by 80 nM purified GRK1 with 40 μM ATP; not shown: His8, N-terminal, kept) MCGTEGPNFYVPFSNATGVVRSPFEYPQYYLAEPWQFSMLAAYMFLLIVLGFPINFLTLYVTVQHKKLRTPLNYILLNLAVADLFMVLGGFTSTLYTSLHGYFVFGPTGCNLQGFFATLGGEIALWSLVVLAIERYVVVCKPMSNFRFGENHAIMGVAFTWVMALACAAPPLAGWSRYIPEGLQCSCGIDYYTLKPEVNNESFVIYMFVVHFTIPMIIIFFCYGQLVFTVKEAAAQQQESATTQKAEKEVTRMVIIYVIAFLICWVPYASVAFYIFTHQGSCFGPIFMTIPAFFAKSAAIYNPVIYIMMNKQFRNCMLTTICCGKNPLGDDEASATVSKTETSQVAPA |

From PMC5518878, “Molecular assembly of rhodopsin with G protein-coupled receptor kinases” (Cell Research, 2017)
